The values below come from US20220380445A1 (Ablynx, published 2022).

Where a chain is given by its changes, count along the chain named. In names and notes the source's numbering stands.

For this test, the target named is T1, human serum albumin (human, UniProt P02768 25-609).
T1 construct: Amine-coupled to the chip (EDC/NHS); also called HSA
Nature of the test: ProteOn SPR; Nanobody on immobilized human serum albumin; Langmuir simultaneous ka/kd fit.

A word on the Kd: it is the free concentration of one partner at which half of the binding sites on the other are occupied at equilibrium, for simple one-to-one binding. Read a high Kd as a looser complex. A word on the koff: it is the first-order rate constant of dissociation. Lower therefore signals a long-lived complex. By kon is commonly meant a measure of how fast the partners come together. High values mean faster complex formation, low ones slower complex formation.

T1 sequence (P02768 25-609 limits assumed): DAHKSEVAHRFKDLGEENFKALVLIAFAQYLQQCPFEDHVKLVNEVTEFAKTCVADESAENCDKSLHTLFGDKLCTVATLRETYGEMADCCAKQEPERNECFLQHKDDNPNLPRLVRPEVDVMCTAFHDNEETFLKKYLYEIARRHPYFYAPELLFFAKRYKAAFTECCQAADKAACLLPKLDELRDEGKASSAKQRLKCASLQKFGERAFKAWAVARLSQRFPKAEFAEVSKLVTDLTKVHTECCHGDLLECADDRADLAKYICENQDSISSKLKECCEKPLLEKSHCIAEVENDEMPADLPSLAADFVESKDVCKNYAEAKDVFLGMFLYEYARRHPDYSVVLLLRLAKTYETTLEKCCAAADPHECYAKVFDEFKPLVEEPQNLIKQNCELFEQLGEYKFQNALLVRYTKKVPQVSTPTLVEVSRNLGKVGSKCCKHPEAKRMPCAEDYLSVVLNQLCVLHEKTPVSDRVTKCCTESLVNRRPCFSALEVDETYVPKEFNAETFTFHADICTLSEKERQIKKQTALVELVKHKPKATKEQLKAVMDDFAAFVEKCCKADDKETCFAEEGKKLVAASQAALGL
Procedure: PBS/Tween (phosphate buffered saline, pH7.4, 0.005% Tween20) was used as running buffer and the experiments were performed at 25° C. […] After immobilization, surfaces were deactivated with ethanolamine HCl (flow rate 30 μl/min). Nanobodies were injected for 2 minutes at 45 μl/min over the HSA surface to render a Nanobody capture level of approximately 200 RU. […] After each cycle (i.e. before a new Nanobody capture and blood sample injection step) the HSA surfaces were regenerated with a 2 minute injection of HCl (100 mM) at 45 μl/min. Sensorgram processing and data analysis was performed with ProteOn Manager 3.1.0 (Bio-Rad Laboratories, Inc.).
Also, for the serum albumin binders tested, a kinetic analysis was performed of the binding interaction with the immobilized serum albumin (Langmuir, simultaneous ka/kd model).

B1: Reference A+L11V+V89L+R102D+C-terminal alanine, N-terminal HIS6 tag (VHH)
VHH: EVQLVESGGGVVQPGGSLRLSCAASGFTFRSFGMSWVRQAPGKGPEWVSSISGSGSDTLYADSVKGRFTISRDNSKNTLYLQMNSLRPEDTALYYCTIGGSLSDSSQGTLVTVSS
Consider B1, for which the Kd was 82 nM, the off-rate (koff) came out at 0.0051 s⁻¹ and the kon came to 62000 M⁻¹ s⁻¹.

B2: Reference A+L11V+V89L+S101H+C-terminal alanine, N-terminal HIS6 tag (VHH)
VHH: B1 VHH with S103H, D104R
On to B2, for which the Kd was found to be 24 nM, the off-rate constant (koff) turned out to be 0.0026 s⁻¹ and the kon stood at 110000 M⁻¹ s⁻¹.
